This is an account of results in doi:10.1101/411223 (bioRxiv, 2018).

The data set “AUC” concerns the molecule itself. The data set can be described thus: AUC.
Another data set deals with T1, Kap114p (S. cerevisiae, UniProt P53067 1-1004).
T1 sequence (looked up): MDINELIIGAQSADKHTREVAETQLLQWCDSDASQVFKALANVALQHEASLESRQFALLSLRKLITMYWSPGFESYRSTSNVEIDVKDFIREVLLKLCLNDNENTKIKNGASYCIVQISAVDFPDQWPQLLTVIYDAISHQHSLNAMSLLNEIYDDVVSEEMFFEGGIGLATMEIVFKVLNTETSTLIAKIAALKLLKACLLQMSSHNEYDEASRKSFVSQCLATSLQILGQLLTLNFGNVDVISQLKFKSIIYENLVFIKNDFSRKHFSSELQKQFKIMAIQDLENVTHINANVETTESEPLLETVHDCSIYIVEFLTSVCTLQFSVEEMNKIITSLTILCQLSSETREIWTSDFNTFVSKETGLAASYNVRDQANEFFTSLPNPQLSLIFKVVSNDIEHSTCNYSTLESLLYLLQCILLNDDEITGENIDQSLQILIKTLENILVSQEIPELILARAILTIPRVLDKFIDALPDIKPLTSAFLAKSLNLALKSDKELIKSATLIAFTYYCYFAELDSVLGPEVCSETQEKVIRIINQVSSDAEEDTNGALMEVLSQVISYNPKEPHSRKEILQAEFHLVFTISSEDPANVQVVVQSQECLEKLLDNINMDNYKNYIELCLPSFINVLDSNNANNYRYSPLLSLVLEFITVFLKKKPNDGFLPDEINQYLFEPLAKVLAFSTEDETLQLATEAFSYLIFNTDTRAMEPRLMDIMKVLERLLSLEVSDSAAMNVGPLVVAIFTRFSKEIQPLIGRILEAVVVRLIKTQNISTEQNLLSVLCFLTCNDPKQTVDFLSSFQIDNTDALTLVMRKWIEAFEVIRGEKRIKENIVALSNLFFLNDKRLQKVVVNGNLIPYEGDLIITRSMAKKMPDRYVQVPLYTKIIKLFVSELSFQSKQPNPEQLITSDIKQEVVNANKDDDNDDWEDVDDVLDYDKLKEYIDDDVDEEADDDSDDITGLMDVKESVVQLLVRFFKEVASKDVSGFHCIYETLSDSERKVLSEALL
The data set is described as follows: ITC.

A further data set has as its target T2, Kap121p (S. cerevisiae, UniProt P32337 1-1089).
T2 sequence (looked up): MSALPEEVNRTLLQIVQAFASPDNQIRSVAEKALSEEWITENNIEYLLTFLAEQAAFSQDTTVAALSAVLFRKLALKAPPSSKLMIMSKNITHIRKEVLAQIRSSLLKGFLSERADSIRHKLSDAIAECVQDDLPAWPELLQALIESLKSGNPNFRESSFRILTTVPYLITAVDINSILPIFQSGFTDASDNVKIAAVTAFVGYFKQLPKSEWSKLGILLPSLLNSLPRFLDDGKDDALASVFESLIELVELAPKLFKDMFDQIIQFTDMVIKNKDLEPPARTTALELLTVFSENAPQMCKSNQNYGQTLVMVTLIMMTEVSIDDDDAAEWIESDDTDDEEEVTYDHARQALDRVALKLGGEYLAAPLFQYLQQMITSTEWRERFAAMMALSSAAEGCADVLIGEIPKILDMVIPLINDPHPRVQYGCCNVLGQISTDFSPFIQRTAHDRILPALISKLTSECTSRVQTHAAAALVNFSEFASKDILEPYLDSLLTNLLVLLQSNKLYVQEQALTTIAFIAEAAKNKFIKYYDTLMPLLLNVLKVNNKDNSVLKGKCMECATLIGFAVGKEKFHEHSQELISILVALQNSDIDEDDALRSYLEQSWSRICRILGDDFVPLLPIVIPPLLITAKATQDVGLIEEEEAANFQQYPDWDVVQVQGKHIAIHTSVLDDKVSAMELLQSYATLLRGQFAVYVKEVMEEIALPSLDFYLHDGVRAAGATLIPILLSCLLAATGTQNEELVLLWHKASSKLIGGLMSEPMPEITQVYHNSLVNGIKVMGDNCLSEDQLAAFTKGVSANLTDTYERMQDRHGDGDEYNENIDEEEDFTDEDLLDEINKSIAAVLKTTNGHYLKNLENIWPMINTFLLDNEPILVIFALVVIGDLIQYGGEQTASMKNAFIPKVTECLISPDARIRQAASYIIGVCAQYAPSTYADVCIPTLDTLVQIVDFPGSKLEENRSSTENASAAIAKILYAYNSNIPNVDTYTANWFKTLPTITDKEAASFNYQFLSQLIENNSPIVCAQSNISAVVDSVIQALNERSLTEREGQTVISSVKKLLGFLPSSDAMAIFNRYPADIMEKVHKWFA
The data set is described as follows: ITC. A general note: ITC needs no label: the signal is the heat of the interaction.

B1: yTBP (61-240) (domain or fragment, S. cerevisiae, UniProt P13393 61-240, looked up)
chain: SGIVPTLQNIVATVTLGCRLDLKTVALHARNAEYNPKRFAAVIMRIREPKTTALIFASGKMVVTGAKSEDDSKLASRKYARIIQKIGFAAKFTDFKIQNIVGSCDVKFPIRLEGLAFSHGTFSSYEPELFPGLIYRMVKPKIVLLIFVSGKIVLTGAKQREEIYQAFEAIYPVLSEFRKM
By stoichiometry N is commonly meant a count of units in the complex or per binding partner. Usually Kd stands for the free concentration of one partner at which half of the binding sites on the other are occupied at equilibrium, for simple one-to-one binding. For B1, the “stoichiometry N” value in “AUC” came out at 2. Also, the Kd was 0.006 µM with Kap114p and around 15 µM with Kap121p.
